Changes are numbered by the printed parent chain.
Tests used:
[1] = system: T1, hADAR2-D (human ADAR2 deaminase domain) (human), P78563-2; assay: EMSA; conditions: EMSA: 20 mM Tris-HCl pH 7-7.1, 6% glycerol, 0.5 mM DTT, 60 mM KCl, 20 mM NaCl, 0.1 mM 2-mercaptoethanol, 1.5 mM EDTA, 0.003% NP-40, 160 U/ml RNasin, 100 ug/ml …
T1 sequence: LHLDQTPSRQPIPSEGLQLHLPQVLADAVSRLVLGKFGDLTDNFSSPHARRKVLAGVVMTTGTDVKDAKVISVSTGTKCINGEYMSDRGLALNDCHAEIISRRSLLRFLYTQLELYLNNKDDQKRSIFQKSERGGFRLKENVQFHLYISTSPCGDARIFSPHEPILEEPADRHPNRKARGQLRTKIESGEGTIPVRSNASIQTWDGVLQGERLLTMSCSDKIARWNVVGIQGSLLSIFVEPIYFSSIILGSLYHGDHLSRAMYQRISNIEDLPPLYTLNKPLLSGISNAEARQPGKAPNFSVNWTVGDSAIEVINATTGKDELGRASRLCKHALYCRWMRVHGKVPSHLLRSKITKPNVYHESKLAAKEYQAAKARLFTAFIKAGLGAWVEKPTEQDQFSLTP

[2] = system: T2, hADAR2-D E488Q E488Q (human), P78563-2; assay: EMSA; conditions: N12 of top = 8-azanebularine; EMSA: 20 mM Tris-HCl pH 7-7.1, 6% glycerol, 0.5 mM DTT, 60 mM KCl, 20 mM NaCl, 0.1 mM 2-mercaptoethanol, 1.5 mM EDTA, 0.003% NP-40, 160 U/ml RNasin, 100 ug/ml …
T2 sequence: T1 sequence with E190Q

UUCCCCACAUUNGACGUUCAGUUAGUACCACCAAUGUGGGGAA [(b) 8-azaN]
Kd ([1]; N12 = 8-azanebularine): 0.027 µM

CAUUANGGUGGGUGGAAUAGUAUAACA / UGUUAUAGUAUCCCACCUACCCUGAUG [(e) GluR B R/G 8-azaN]
Kd ([1]; N6 of top = 8-azanebularine): > 3.2 µM

UUCCCCACAUUNGACGUUCAGU / ACUGAACGACCAAUGUGGGGAA [(i) 8-azaN]
Kd [2]: < 0.005 µM | Kd ([1]; N12 of top = 8-azanebularine): 0.015 µM

CCCCACAUUNGACGUUCAGUUAGUACCACCAAUGUGGGG [(c) 8-azaN]
Kd ([1]; N10 = 8-azanebularine): 0.31 µM

UUCCCCACAUUNGACGUUCAGU / ACUGAACGUCCAAUGUGGGGAA [(j) 8-azaN]
Kd ([1]; N12 of top = 8-azanebularine): 0.01 µM

UUCCCCACAUUNGACGUUCAGU / ACUGAACCACCAATGUGGGGAA [(h) 8-azaN]
Kd ([1]; N12 of top = 8-azanebularine, bottom nt 8-15 2'-deoxy): 0.342 µM

UUCCCCACAUUNGACGUUCAGU / ACUGAACCACCAAUGTGGGGAA [(f) 8-azaN]
Kd ([1]; N12 of top = 8-azanebularine, bottom nt 16-22 2'-deoxy): 0.114 µM

UUCCCCACAUUNGACGUUCAGU / ACTGAACCACCAAUGUGGGGAA [(g) 8-azaN]
Kd ([1]; N12 of top = 8-azanebularine, bottom nt 1-7 2'-deoxy): 0.099 µM

UUCCCCACAUUNGACGUUCAGU / ACUGAACCACCAAUGUGGGGAA [(d) 8-azaN]
Kd ([1]; N12 of top = 8-azanebularine): 0.03 µM
